Reference: patent US20030049211A1 (published 2003)

Each binder was assayed against T1, human PTHrP (1-34) (human) (assay: ELISA, plate coated with human PTHrP (1-34)).
T1 construct: Synthetic peptide (Peninsula; Peptide Research Institute), coated on ELISA plates at 1 ug/ml; added at 1 ng/ml final in the cAMP assay; also called parathyroid hormone related peptide (1-34)
Method: An ELISA plate for determining antigen-binding ability was prepared as follows. Each well of a 96-well ELISA plate (Maxisorp, NUNC) was coated with 100 μl of a coating buffer containing 1 μg/ml of human PTHrP (1-34) and then blocked with 200 μl of a dilution buffer. Subsequently, each well was added with each of the serial dilutions of the COS-7 cell culture supernatant in which each of the hybrid antibodies and humanized antibodies was expressed, or added with each of the serial dilutions of each of the hybrid antibodies and humanized antibodies in a purified form. The plate was incubated at room temperature and washed with PBS-Tween 20. Subsequently, each well was added with 100 μl of alkaline phosphatase-conjugated goat anti-human IgG antibody (TAGO). The plate was incubated at room temperature and washed with PBS-Tween 20. Subsequently, each well was added with 1 mg/ml of a substrate solution (“Sigma 104”, p-nitrophenylphosphoric acid, SIGMA). The solution was measured on its absorbance at 405 nm using Microplate Reader (Bio Rad).

Row | binding result | Binder
1 | binds | humanized #23-57-137-1 antibody having L-chain version "s" (antibody, V domains shown, Humanized H-chain version a with human Cgamma1; human lambda C-region; COS-7 expressed; also called hMBC1HcDNA/pCOS1 and hMBC1Lsλ/pCOS1) VH: QVQLVESGGGVVQPGRSLRLSCAASGFTFSSYGMSWVRQAPGKGLEWVATISSGGSYTYYPDSVKGRFTISRDNSKNTLYLQMNSLRAEDTAVYYCARQTTMTYFAYWGQGTLVTVSS VL: QLVLTQSPSASASLGASVKLTCTLSSQHSTYTIEWYQQQPEKGPKYVMDLKQDGSHSTGDGIPDRFSGSSSGAERYLTISSLQSEDEADYICGVGDTIKEQFVYVFGGGTKLTVLG
2 | binds | human FR1/mouse FR2,3,4 hybrid antibody, L-chain hmmMBC1L(λ) (antibody, V domains shown, H-chain from hMBC1HcDNA/pCOS1 (humanized version a, human Cgamma1); human lambda C-region; also called FR1/FR2 hybrid antibody) VH: QVQLVESGGGVVQPGRSLRLSCAASGFTFSSYGMSWVRQAPGKGLEWVATISSGGSYTYYPDSVKGRFTISRDNSKNTLYLQMNSLRAEDTAVYYCARQTTMTYFAYWGQGTLVTVSS VL: QLVLTQSPSASASLGASVKLTCTLSSQHSTYTIEWYQQQPLKPPKYVMDLKQDGSHSTGDGIPDRFSGSSSGADRYLSISNIQPEDEAMYICGVGDTIKEQFVYVFGGGTKVTVL
3 | binds | antibody having both a humanized H-chain version "a" and a chimeric L-chain (antibody, V domains shown, Human Cgamma1 H-chain C-region) VH: QVQLVESGGGVVQPGRSLRLSCAASGFTFSSYGMSWVRQAPGKGLEWVATISSGGSYTYYPDSVKGRFTISRDNSKNTLYLQMNSLRAEDTAVYYCARQTTMTYFAYWGQGTLVTVSS VL: QLVLTQSSSASFSLGASAKLTCTLSSQHSTYTIEWYQQQPLKPPKYVMDLKQDGSHSTGDGIPDRFSGSSSGADRYLSISNIQPEDEAMYICGVGDTIKEQFVYVFGGGTKVTVLG
4 | binds | humanized #23-57-137-1 antibody having L-chain version "m" (antibody, V domains shown, Humanized H-chain version a with human Cgamma1; human lambda C-region; COS-7 expressed; also called hMBC1HcDNA/pCOS1 and hMBC1Lmλ/pCOS1) VH: QVQLVESGGGVVQPGRSLRLSCAASGFTFSSYGMSWVRQAPGKGLEWVATISSGGSYTYYPDSVKGRFTISRDNSKNTLYLQMNSLRAEDTAVYYCARQTTMTYFAYWGQGTLVTVSS VL: QLVLTQSPSASASLGASVKLTCTLSSQHSTYTIEWYQQQPEKGPRYLMDLKQDGSHSTGDGIPDRFSGSSSGAERYLTISSLQSEDEADYYCGVGDTIKEQFVYVFGGGTKLTVLG
5 | binds | humanized #23-57-137-1 antibody having L-chain version "j" (antibody, V domains shown, Humanized H-chain version a with human Cgamma1; human lambda C-region; COS-7 expressed; also called hMBC1HcDNA/pCOS1 and hMBC1Ljλ/pCOS1) VH: QVQLVESGGGVVQPGRSLRLSCAASGFTFSSYGMSWVRQAPGKGLEWVATISSGGSYTYYPDSVKGRFTISRDNSKNTLYLQMNSLRAEDTAVYYCARQTTMTYFAYWGQGTLVTVSS VL: QLVLTQSPSASASLGASVKLTCTLSSQHSTYTIEWYQQQPEKGPKYLMDLKQDGSHSTGDGIPDRFSGSSSGAERYLTISSLQSEDEADYYCGVGDTIKEQFVYVFGGGTKLTVLG
6 | binds | humanized #23-57-137-1 antibody having L-chain version "q" (antibody, V domains shown, Humanized H-chain version a with human Cgamma1; human lambda C-region; COS-7 expressed (also CHO); also called hMBC1HcDNA/pCOS1 and hMBC1Lqλ/pCOS1) VH: QVQLVESGGGVVQPGRSLRLSCAASGFTFSSYGMSWVRQAPGKGLEWVATISSGGSYTYYPDSVKGRFTISRDNSKNTLYLQMNSLRAEDTAVYYCARQTTMTYFAYWGQGTLVTVSS VL: QLVLTQSPSASASLGASVKLTCTLSSQHSTYTIEWYQQQPEKGPKYLMDLKQDGSHSTGDGIPDRFSGSSSGAERYLTISSLQSEDEADYICGVGDTIKEQFVYVFGGGTKLTVLG
7 | binds | humanized #23-57-137-1 antibody having L-chain version "t" (antibody, V domains shown, Humanized H-chain version a with human Cgamma1; human lambda C-region; COS-7 expressed; also called hMBC1HcDNA/pCOS1 and hMBC1Ltλ/pCOS1) VH: QVQLVESGGGVVQPGRSLRLSCAASGFTFSSYGMSWVRQAPGKGLEWVATISSGGSYTYYPDSVKGRFTISRDNSKNTLYLQMNSLRAEDTAVYYCARQTTMTYFAYWGQGTLVTVSS VL: QLVLTQSPSASASLGASVKLTCTLSSQHSTYTIEWYQQQPEKGPRYVMDLKQDGSHSTGDGIPDRFSGSSSGAERYLTISSLQSEDEADYICGVGDTIKEQFVYVFGGGTKLTVLG
8 | binds | humanized #23-57-137-1 antibody having L-chain version "l" (antibody, V domains shown, Humanized H-chain version a with human Cgamma1; human lambda C-region; COS-7 expressed; also called hMBC1HcDNA/pCOS1 and hMBC1Llλ/pCOS1) VH: QVQLVESGGGVVQPGRSLRLSCAASGFTFSSYGMSWVRQAPGKGLEWVATISSGGSYTYYPDSVKGRFTISRDNSKNTLYLQMNSLRAEDTAVYYCARQTTMTYFAYWGQGTLVTVSS VL: QLVLTQSPSASASLGASVKLTCTLSSQHSTYTIEWYQQQPEKGPKYVMDLKQDGSHSTGDGIPDRFSGSSSGAERYLTISSLQSEDEADYYCGVGDTIKEQFVYVFGGGTKLTVLG
9 | binds | humanized #23-57-137-1 antibody having L-chain version "r" (antibody, V domains shown, Humanized H-chain version a with human Cgamma1; human lambda C-region; COS-7 expressed (also CHO); also called hMBC1HcDNA/pCOS1 and hMBC1Lrλ/pCOS1) VH: QVQLVESGGGVVQPGRSLRLSCAASGFTFSSYGMSWVRQAPGKGLEWVATISSGGSYTYYPDSVKGRFTISRDNSKNTLYLQMNSLRAEDTAVYYCARQTTMTYFAYWGQGTLVTVSS VL: QLVLTQSPSASASLGASVKLTCTLSSQHSTYTIEWYQQQPEKGPRYLMDLKQDGSHSTGDGIPDRFSGSSSGAERYLTISSLQSEDEADYICGVGDTIKEQFVYVFGGGTKLTVLG
10 | binds | mouse FR1,2/human FR3,4 hybrid antibody, L-chain m/hMBC1Laλ (antibody, V domains shown, H-chain from hMBC1HcDNA/pCOS1 (humanized version a, human Cgamma1); human lambda C-region) VH: QVQLVESGGGVVQPGRSLRLSCAASGFTFSSYGMSWVRQAPGKGLEWVATISSGGSYTYYPDSVKGRFTISRDNSKNTLYLQMNSLRAEDTAVYYCARQTTMTYFAYWGQGTLVTVSS VL: QLVLTQSSSASFSLGASAKLTCTLSSQHSTYTIEWYQQQPLKPPKYVMDLKQDGSHSTGDGIPDRFSGSSSGAERYLTISSLQSEDEADYYCGVGDTIKEQFVYVFGGGTKLTVL
11 | binds | humanized #23-57-137-1 antibody having L-chain version "o" (antibody, V domains shown, Humanized H-chain version a with human Cgamma1; human lambda C-region; COS-7 expressed; also called hMBC1HcDNA/pCOS1 and hMBC1Loλ/pCOS1) VH: QVQLVESGGGVVQPGRSLRLSCAASGFTFSSYGMSWVRQAPGKGLEWVATISSGGSYTYYPDSVKGRFTISRDNSKNTLYLQMNSLRAEDTAVYYCARQTTMTYFAYWGQGTLVTVSS VL: QLVLTQSPSASASLGASVKLTCTLSSQHSTYTIEWYQQQPEKGPRYVMDLKQDGSHSTGDGIPDRFSGSSSGAERYLTISSLQSEDEADYYCGVGDTIKEQFVYVFGGGTKLTVLG
12 | binds | chimeric #23-57-137-1 antibody with L-chain kappa chain C-region (antibody, V domains shown, Mouse V-regions joined to human H-chain C-region Cgamma1 and human kappa C-region (from plasmid HEF-PM1k-gk); expressed in COS-7 cells; also called chimeric antibody; MBC1HcDNA/pCOS1 and MBC1L(κ)/neo) VH: EVQLVESGGDLVKPGGSLKLSCAASGFTFSSYGMSWIRQTPDKRLEWVATISSGGSYTYYPDSVKGRFTISRDNAKNTLYLQMSSLKSEDTAMFYCARQTTMTYFAYWGQGTLVTVSA VL: QLVLTQSSSASFSLGASAKLTCTLSSQHSTYTIEWYQQQPLKPPKYVMDLKQDGSHSTGDGIPDRFSGSSSGADRYLSISNIQPEDEAMYICGVGDTIKEQFVYVFGGGTKVTVLG
13 | binds | chimeric #23-57-137-1 antibody with L-chain lambda chain C-region (antibody, V domains shown, Mouse V-regions joined to human H-chain C-region Cgamma1 and human lambda C-region (isotype Mcg+Ke+Oz-, EMBL X57819); expressed in COS-7 cells; also called chimeric antibody; MBC1HcDNA/pCOS1 and MBC1L(λ)/neo) VH: EVQLVESGGDLVKPGGSLKLSCAASGFTFSSYGMSWIRQTPDKRLEWVATISSGGSYTYYPDSVKGRFTISRDNAKNTLYLQMSSLKSEDTAMFYCARQTTMTYFAYWGQGTLVTVSA VL: QLVLTQSSSASFSLGASAKLTCTLSSQHSTYTIEWYQQQPLKPPKYVMDLKQDGSHSTGDGIPDRFSGSSSGADRYLSISNIQPEDEAMYICGVGDTIKEQFVYVFGGGTKVTVLG

These binders were tested against T1, human PTHrP (1-34) (assay: solid phase RIA of hybridoma culture supernatant).
Description: The hybridomas thus obtained was suspended into RPMI-1640 medium containing 15% FCS supplemented with OPI-supplement (Sigma), followed by unification of the hybridomas by limiting dilution method.

Row | binding result | Binder
14 | binds | mouse monoclonal antibody #23-57-137-1 against human PTHrP (1-34) (antibody, V domains shown, Mouse antibody from hybridoma culture supernatant; mouse lambda L-chain; H-chain cloned with an MHC-G1 primer) VH: EVQLVESGGDLVKPGGSLKLSCAASGFTFSSYGMSWIRQTPDKRLEWVATISSGGSYTYYPDSVKGRFTISRDNAKNTLYLQMSSLKSEDTAMFYCARQTTMTYFAYWGQGTLVTVSA VL: QLVLTQSSSASFSLGASAKLTCTLSSQHSTYTIEWYQQQPLKPPKYVMDLKQDGSHSTGDGIPDRFSGSSSGADRYLSISNIQPEDEAMYICGVGDTIKEQFVYVFGGGTKVTVLG
